Laboratory results from patent US20010006793A1, “MODULATORS OF EUKARYOTIC CASPASES” (priority 1998, published 2001).

Target: T1, human caspase-8β (Homo sapiens, UniProt Q14790)
T1 construct: expressed in transfected cells; host or cells: Saccharomyces cerevisiae FY250, single-copy ARS/CEN vector YCpGAL1-caspase-8β-L, GAL1 promoter
Assay: Yeast screening method: suppression of caspase-8β-induced lethality in S. cerevisiae FY250 double transformants on galactose medium
Assay type: cell-based
Conditions: for identified as a caspase inhibitor (product of human brain cDNA suppressing caspase-8β-induced cell death): FY250 double transformants, GAL1-driven expression, galactose-containing medium; for Caspase Inhibitor: Table 1 Caspase Modulators, identified using the screening method of the invention
From the text: The invention includes a screening method of determining whether a compound is a caspase modulator. […] A difference between the viability indicator of the first cell and the viability indicator of the second cell is an indication that the compound is a caspase modulator.
As described herein, the transformant expresses the caspase when an inducer of the inducible promoter of the caspase vector is provided to the caspase transformant. When the caspase transformant expresses the caspase, cytotoxicity ensues in the caspase transformant. If an inhibitor of the caspase is provided to the caspase transformant prior to the onset of cytotoxicity, the caspase transformant may be enabled to survive expression of the caspase or the onset of cytotoxicity may be delayed.
The gene encoding p35 was cloned into a yeast-based expression vector designated YCpGAL1-U (wherein U designates a URA3 selectable marker) to yield a YCpGAL1-p35-U inhibitor vector. Yeast cells were co-transformed with the inhibitor vector, YCpGAL1-p35-U, and with the caspase vector, YCpGAL1-caspase-8β-L, to yield a double transformant. Double transformants were plated on SC-leucine-uracil medium supplemented with dextrose to repress GAL1 promoter function. Serial ten-fold dilutions of individual double transformants grown in SC-leucine-uracil medium containing dextrose were prepared and spotted onto SC-leucine-uracil medium comprising dextrose or galactose.
Individual viable colonies of double transformant are isolated, and the test vector comprising the unknown cDNA is isolated.
The screening method used in this Example was performed as follows. A yeast double transformant was prepared by transforming S. cerevisiae strain FY250 with two yeast expression vectors. The first yeast expression vector comprised cDNA encoding a self-activating form of human caspase-8β operably linked to a GAL1 promoter and a LEU2 selectable marker. This first vector was a single copy vector and was designated YCpGAL1-caspase-8β-L. A plurality of second yeast expression vectors was used, each comprising a single random human cDNA sequence operably linked to a GAL1 promoter and a URA3 selectable marker. The cDNA sequences used to generate the plurality of second yeast expression vectors were obtained from a library of cDNAs prepared from human brain cells. The second vectors were multicopy vectors.
Double transformants were propagated on plates containing SC-leucine-uracil agar comprising dextrose. Colonies of double transformants were replica plated on plates containing medium comprising galactose, whereby expression of caspase-8β and of any product encoded by the cDNA of the second vector was induced. […] The second vector was recovered from individual colonies of double transformants which were able to survive on the galactose-containing medium and used, along with the first vector, to transform fresh FY250 cells. […] The identity of individual products encoded by the cDNA of individual second vectors was established by determining the nucleotide sequence of the cDNA and comparing the sequence with databases of known human gene sequences, including Genbank, the EST Database, and the Human Genome Database.

T1 sequence (Q14790 1-464 isoform Q14790-2): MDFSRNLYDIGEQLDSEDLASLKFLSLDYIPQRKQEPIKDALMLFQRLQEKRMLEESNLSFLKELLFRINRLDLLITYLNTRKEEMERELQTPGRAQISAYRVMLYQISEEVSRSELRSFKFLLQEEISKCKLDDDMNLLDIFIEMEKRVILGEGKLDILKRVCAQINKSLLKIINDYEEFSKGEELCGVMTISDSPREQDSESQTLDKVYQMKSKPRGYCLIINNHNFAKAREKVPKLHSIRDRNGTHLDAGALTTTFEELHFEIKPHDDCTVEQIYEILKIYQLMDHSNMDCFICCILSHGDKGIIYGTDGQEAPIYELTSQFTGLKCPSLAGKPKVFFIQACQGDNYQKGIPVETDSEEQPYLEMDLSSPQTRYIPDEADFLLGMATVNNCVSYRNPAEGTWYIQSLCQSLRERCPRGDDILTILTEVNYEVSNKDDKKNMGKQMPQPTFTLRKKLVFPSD

| Substance | identified as a caspase inhibitor (product of human brain cDNA suppressing caspase-8β-induced cell death) | Caspase Inhibitor |
| --- | --- | --- |
| Human Cytochrome b: product encoded by human brain cDNA, identified as caspase inhibitor | caspase inhibitor | ✓ |
| Human Synaptophysin p38: product encoded by human brain cDNA, identified as caspase inhibitor | caspase inhibitor | ✓ |
| Human Tat Binding Protein: product encoded by human brain cDNA; also known as TBP, SUG1, and 26S proteosomal p45 subunit ATPase | caspase inhibitor | ✓ |
| IETD/fmk [reference compound] | – | ✓ |
| z-VAD-fmk [reference compound] | – | ✓ |
